Tested on: Escherichia coli TOP10
Assay: shrunken log2 fold change of peptide-encoding DNA abundance (4.5 h post-induction vs induction); higher = less antimicrobial activity (less host growth inhibition)
Conditions: time post-induction: 4.5 h; library: site-saturation at positions 5, 18, 19, 20
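Note: peptides expressed intracellularly from a pBAD plasmid library in pooled LB shake-flask culture, induced with 0.3% L-arabinose, DNA abundance read by NGS, three biological replicates, DESeq2 with apeglm shrinkage.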

Sequence | shrunken log2 fold change
RRIRHRPPRLPRPRPRPPFMPRP | 0.0707
RRIRHRPPRLPRPRPRPPGAPRP | 0.935
RRIRHRPPRLPRPRPRPPHIPRP | -0.287
RRIRHRPPRLPRPRPRPPIHPRP | -0.639
RRIRHRPPRLPRPRPRPPIKPRP | -0.16
RRIRHRPPRLPRPRPRPPKYPRP | -0.349
RRIRHRPPRLPRPRPRPPMEPRP | -0.0615
RRIRHRPPRLPRPRPRPPMPPRP | 0.108
RRIRHRPPRLPRPRPRPPNKPRP | -0.171
RRIRHRPPRLPRPRPRPPPLPRP | 0.651
RRIRHRPPRLPRPRPRPPQGPRP | 0.133
RRIRHRPPRLPRPRPRPPQMPRP | 0.149
RRIRHRPPRLPRPRPRPPRFPRP | 0.578
RRIRHRPPRLPRPRPRPPSMPRP | -0.343
RRIRHRPPRLPRPRPRPPTMPRP | -0.354
RRIRHRPPRLPRPRPRPPVAPRP | 0.0782
RRIRHRPPRLPRPRPRPPWRPRP | 0.538
RRIRHRPPRLPRPRPRPPWWPRP | 0.18
RRIRHRPPRLPRPRPRPPYSPRP | -0.418
RRIRHRPPRLPRPRPRPQCFPRP | -0.0477
RRIRHRPPRLPRPRPRPQCKPRP | -0.161
RRIRHRPPRLPRPRPRPQECPRP | -0.0126

Sequence | shrunken log2 fold change
RRIRHRPPRLPRPRPRPQFAPRP | 0.0852
RRIRHRPPRLPRPRPRPQFGPRP | -0.184
RRIRHRPPRLPRPRPRPQGNPRP | -0.168
RRIRHRPPRLPRPRPRPQGSPRP | -0.109
RRIRHRPPRLPRPRPRPQHDPRP | -0.281
RRIRHRPPRLPRPRPRPQILPRP | -0.0081
RRIRHRPPRLPRPRPRPQITPRP | -0.884
RRIRHRPPRLPRPRPRPQMKPRP | -0.553
RRIRHRPPRLPRPRPRPQMLPRP | -0.0829
RRIRHRPPRLPRPRPRPQMTPRP | -0.104
RRIRHRPPRLPRPRPRPQNFPRP | -0.522
RRIRHRPPRLPRPRPRPQNPPRP | -0.0256
RRIRHRPPRLPRPRPRPQPGPRP | -0.0184
RRIRHRPPRLPRPRPRPQPRPRP | 0.282
RRIRHRPPRLPRPRPRPQQCPRP | -0.0705
RRIRHRPPRLPRPRPRPQRQPRP | 0.0621
RRIRHRPPRLPRPRPRPQSRPRP | -0.0223
RRIRHRPPRLPRPRPRPQTGPRP | -0.169
RRIRHRPPRLPRPRPRPQVFPRP | -0.00865
RRIRHRPPRLPRPRPRPQVPPRP | 0.0019
RRIRHRPPRLPRPRPRPQVYPRP | -0.21
RRIRHRPPRLPRPRPRPQYQPRP | -0.496

Sequence | shrunken log2 fold change
RRIRHRPPRLPRPRPRPQYYPRP | -1.76
RRIRHRPPRLPRPRPRPRAIPRP | 0.0852
RRIRHRPPRLPRPRPRPRCSPRP | -0.236
RRIRHRPPRLPRPRPRPRDQPRP | -0.0907
RRIRHRPPRLPRPRPRPRFPPRP | 0.0956
RRIRHRPPRLPRPRPRPRGCPRP | 0.387
RRIRHRPPRLPRPRPRPRHIPRP | -0.39
RRIRHRPPRLPRPRPRPRKEPRP | -0.0122
RRIRHRPPRLPRPRPRPRKSPRP | 0.119
RRIRHRPPRLPRPRPRPRLQPRP | 0.0915
RRIRHRPPRLPRPRPRPRMMPRP | -0.0987
RRIRHRPPRLPRPRPRPRPHPRP | 0.365
RRIRHRPPRLPRPRPRPRQCPRP | -0.0969
RRIRHRPPRLPRPRPRPRQGPRP | 0.093
RRIRHRPPRLPRPRPRPRQIPRP | -0.0442
RRIRHRPPRLPRPRPRPRRNPRP | -0.104
RRIRHRPPRLPRPRPRPRSHPRP | -0.221
RRIRHRPPRLPRPRPRPRTTPRP | 0.136
RRIRHRPPRLPRPRPRPRVKPRP | -0.00109
RRIRHRPPRLPRPRPRPRVLPRP | -0.0249
RRIRHRPPRLPRPRPRPRWKPRP | 0.00489
RRIRHRPPRLPRPRPRPRWMPRP | -0.209

Sequence | shrunken log2 fold change
RRIRHRPPRLPRPRPRPRWTPRP | 0.0902
RRIRHRPPRLPRPRPRPRYPPRP | 0.0331
RRIRHRPPRLPRPRPRPRYSPRP | -0.234
RRIRHRPPRLPRPRPRPSAIPRP | -0.00669
RRIRHRPPRLPRPRPRPSDCPRP | -0.126
RRIRHRPPRLPRPRPRPSEIPRP | -0.0493
RRIRHRPPRLPRPRPRPSEMPRP | -0.0714
RRIRHRPPRLPRPRPRPSFHPRP | -0.495
RRIRHRPPRLPRPRPRPSLGPRP | 0.165
RRIRHRPPRLPRPRPRPSLNPRP | -0.51
RRIRHRPPRLPRPRPRPSLVPRP | -0.264
RRIRHRPPRLPRPRPRPSLYPRP | 0.07
RRIRHRPPRLPRPRPRPSMSPRP | -0.0246
RRIRHRPPRLPRPRPRPSREPRP | 0.0138
RRIRHRPPRLPRPRPRPSRSPRP | -0.202
RRIRHRPPRLPRPRPRPSTFPRP | -0.0458
RRIRHRPPRLPRPRPRPSTGPRP | -0.24
RRIRHRPPRLPRPRPRPSYDPRP | -0.0244
RRIRHRPPRLPRPRPRPSYYPRP | -1.56
RRIRHRPPRLPRPRPRPTARPRP | 0.156
RRIRHRPPRLPRPRPRPTCKPRP | -0.015
RRIRHRPPRLPRPRPRPTFRPRP | 0.0997

Sequence | shrunken log2 fold change
RRIRHRPPRLPRPRPRPTFYPRP | -0.183
RRIRHRPPRLPRPRPRPTGWPRP | 0.841
RRIRHRPPRLPRPRPRPTGYPRP | -0.0185
RRIRHRPPRLPRPRPRPTHPPRP | 0.155
RRIRHRPPRLPRPRPRPTHYPRP | -0.26
RRIRHRPPRLPRPRPRPTIQPRP | -0.169
RRIRHRPPRLPRPRPRPTIWPRP | -0.284
RRIRHRPPRLPRPRPRPTKHPRP | -0.142
RRIRHRPPRLPRPRPRPTKSPRP | -0.0287
RRIRHRPPRLPRPRPRPTLCPRP | -0.134
RRIRHRPPRLPRPRPRPTMFPRP | -0.0195
RRIRHRPPRLPRPRPRPTMGPRP | 0.144
RRIRHRPPRLPRPRPRPTNFPRP | -0.398
RRIRHRPPRLPRPRPRPTNLPRP | -0.288
RRIRHRPPRLPRPRPRPTQNPRP | 0.666
RRIRHRPPRLPRPRPRPTQYPRP | 0.124
RRIRHRPPRLPRPRPRPTRDPRP | 0.054
RRIRHRPPRLPRPRPRPTRVPRP | 0.211
RRIRHRPPRLPRPRPRPTSAPRP | 0.0939
RRIRHRPPRLPRPRPRPTSWPRP | 0.091
RRIRHRPPRLPRPRPRPTSYPRP | -0.178

From the supplement of paper PMC9112550, “Optimization of the antimicrobial peptide Bac7 by deep mutational scanning” (BMC Biology, 2022)
